One block for each binder: values may come before it.
Key:
[1] = molecular target: T1, purified human C1q protein (human, UniProt P02745 23-245; P02746 28-253; P02747 29-245); assay: pull-down
[2] = molecular target: T1, purified human C1q protein; assay: immunostaining of cells or tissue
[3] = molecular target: the molecule itself; assay: negative staining electron microscopy

T1 sequence (P02745 23-245, chain 1 of 3): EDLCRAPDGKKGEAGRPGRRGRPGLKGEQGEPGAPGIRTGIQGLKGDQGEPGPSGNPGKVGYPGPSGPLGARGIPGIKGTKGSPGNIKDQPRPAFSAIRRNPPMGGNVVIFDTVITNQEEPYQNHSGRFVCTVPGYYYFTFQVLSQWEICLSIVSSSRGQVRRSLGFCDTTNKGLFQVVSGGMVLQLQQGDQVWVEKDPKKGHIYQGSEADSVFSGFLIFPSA
T1 sequence (P02746 28-253, chain 2 of 3): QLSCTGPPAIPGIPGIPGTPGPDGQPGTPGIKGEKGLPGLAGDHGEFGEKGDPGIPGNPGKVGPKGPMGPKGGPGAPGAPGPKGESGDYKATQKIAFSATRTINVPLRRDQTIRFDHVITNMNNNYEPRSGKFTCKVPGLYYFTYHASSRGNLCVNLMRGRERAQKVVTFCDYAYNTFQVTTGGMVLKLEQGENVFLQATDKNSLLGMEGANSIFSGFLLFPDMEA
T1 sequence (P02747 29-245, chain 3 of 3): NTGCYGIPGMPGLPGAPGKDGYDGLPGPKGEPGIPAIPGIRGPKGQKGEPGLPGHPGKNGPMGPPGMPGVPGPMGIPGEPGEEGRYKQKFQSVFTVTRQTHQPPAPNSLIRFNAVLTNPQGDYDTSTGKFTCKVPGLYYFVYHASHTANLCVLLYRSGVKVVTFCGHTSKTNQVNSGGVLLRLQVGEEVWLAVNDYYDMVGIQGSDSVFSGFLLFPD

- binding result [1]: binds
B1: Rat Nptx2 pentraxin domain (X2-PD) (domain or fragment, UniProt P97738 224-425, looked up)
chain: DAFKVSLPLRTNYLYGKIKKTLPELYAFTICLWLRSSASPGIGTPFSYAVPGQANEIVLIEWGNNPIELLINDKVAQLPLFVSDGKWHHICITWTTRDGMWEAFQDGEKLGTGENLAPWHPIKPGGVLILGQEQDTVGGRFDATQAFVGELSQFNIWDRVLRAQEIINIANCSTNMPGNIIPWVDNNVDVFGGASKWPVETC

- Kd [2]: ~2 nM
B2: Nptxr and Nptx2 co-expressed on a stable tetracycline-inducible CHO cell-line (Nptxr/x2) (complex, human)
chain 1: MKFLAVLLAAGMLAFLGAVICIIASVPLAASPARALPGGADNASVASGAAASPGPQRSLSALHGAGGSAGPPALPGAPAASAHPLPPGPLFSRFLCTPLAAACPSGAQQGDAAGAAPGEREELLLLQSTAEQLRQTALQQEARIRADQDTIRELTGKLGRCESGLPRGLQGAGPRRDTMADGPWDSPALILELEDAVRALRDRIDRLEQELPARVNLSAAPAPVSAVPTGLHSKMDQLEGQLLAQVLALEKERVALSHSSRRQRQEVEKELDVLQGRVAELEHGSSAYSPPDAFKISIPIRNNYMYARVRKALPELYAFTACMWLRSRSSGTGQGTPFSYSVPGQANEIVLLEAGHEPMELLINDKVAQLPLSLKDNGWHHICIAWTTRDGLWSAYQDGELQGSGENLAAWHPIKPHGILILGQEQDTLGGRFDATQAFVGDIAQFNLWDHALTPAQVLGIANCTAPLLGNVLPWEDKLVEAFGGATKAAFDVCKGRAKA
chain 2: GAQDSPAPGSRFVCTALPPEAVHAGCPLPAMPMQGGAQSPEEELRAAVLQLRETVVQQKETLGAQREAIRELTGKLARCEGLAGGKARGAGATGKDTMGDLPRDPGHVVEQLSRSLQTLKDRLESLEHQLRANVSNAGLPGDFREVLQQRLGELERQLLRKVAELEDEKSLLHNETSAHRQKTESTLNALLQRVTELERGNSAFKSPDAFKVSLPLRTNYLYGKIKKTLPELYAFTICLWLRSSASPGIGTPFSYAVPGQANEIVLIEWGNNPIELLINDKVAQLPLFVSDGKWHHICVTWTTRDGMWEAFQDGEKLGTGENLAPWHPIKPGGVLILGQEQDTVGGRFDATQAFVGELSQFNIWDRVLRAQEIVNIANCSTNMPGNIIPWVDNNVDVFGGASKWPVETCEERLLDL

B3: neuronal pentraxin 2 (Nptx2), purified recombinant, His-tagged (natural protein, UniProt P47972 16-431, looked up)
chain: GAQDSPAPGSRFVCTALPPEAVHAGCPLPAMPMQGGAQSPEEELRAAVLQLRETVVQQKETLGAQREAIRELTGKLARCEGLAGGKARGAGATGKDTMGDLPRDPGHVVEQLSRSLQTLKDRLESLEHQLRANVSNAGLPGDFREVLQQRLGELERQLLRKVAELEDEKSLLHNETSAHRQKTESTLNALLQRVTELERGNSAFKSPDAFKVSLPLRTNYLYGKIKKTLPELYAFTICLWLRSSASPGIGTPFSYAVPGQANEIVLIEWGNNPIELLINDKVAQLPLFVSDGKWHHICVTWTTRDGMWEAFQDGEKLGTGENLAPWHPIKPGGVLILGQEQDTVGGRFDATQAFVGELSQFNIWDRVLRAQEIVNIANCSTNMPGNIIPWVDNNVDVFGGASKWPVETCEERLLDL
- stoichiometry N [3]: 6

From paper doi:10.1101/2022.09.22.509106 (bioRxiv, 2022)
